Source: patent US20220259301A1
Blank lines part the entries; values can stand above or below the molecule they belong to.

Biological target: human IL-23 (human) (UniProt Q9NPF7)
Sequence of UniProt Q9NPF7 (Q9NPF7 20-189, chain 1 of 2): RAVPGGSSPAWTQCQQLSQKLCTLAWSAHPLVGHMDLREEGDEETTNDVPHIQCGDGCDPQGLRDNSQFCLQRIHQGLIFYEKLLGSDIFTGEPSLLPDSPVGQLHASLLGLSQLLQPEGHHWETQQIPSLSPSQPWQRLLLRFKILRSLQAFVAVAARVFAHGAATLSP
Sequence of UniProt Q9NPF7 (chain, as listed by the source, chain 2 of 2): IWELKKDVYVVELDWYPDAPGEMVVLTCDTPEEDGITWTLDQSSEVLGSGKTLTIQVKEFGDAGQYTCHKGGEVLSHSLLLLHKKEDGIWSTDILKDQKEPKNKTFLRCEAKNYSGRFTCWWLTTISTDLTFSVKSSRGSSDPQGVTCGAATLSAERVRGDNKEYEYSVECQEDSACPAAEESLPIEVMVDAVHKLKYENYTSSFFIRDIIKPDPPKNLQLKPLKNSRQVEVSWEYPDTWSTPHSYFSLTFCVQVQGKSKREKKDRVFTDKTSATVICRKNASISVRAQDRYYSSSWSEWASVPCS

IL-23 stimulated IL-17 production: 167 pM
Molecule: ustekinumab (antibody)

IL-23 stimulated IL-17 production: < 10 pM
B1: Risankizumab (antibody, V domains shown)
VH: QVQLVQSGAEVKKPGSSVKVSCKASGYTFTDQTIHWMRQAPGQGLEWIGYIYPRDDSPKYNENFKGKVTITADKSTSTAYMELSSLRSEDTAVYYCAIPDRSGYAWFIYWGQGTLVTVSS
VL: DIQMTQSPSSLSASVGDRVTITCKASRDVAIAVAWYQQKPGKVPKLLIYWASTRHTGVPSRFSGSGSRTDFTLTISSLQPEDVADYFCHQYSSYPFTFGSGTKLEIKR
